Assay results reported in patent US20220025003A1 (University of Washington, published 2022).
Where two headings read alike, the source gives them in different places.

Experiments:
[1] = target: T1, NS3aH1-mCherry, no drug (DMSO) (hepatitis C virus); assay: colocalization, confocal microscopy, NIH3T3 cells, no drug
T1 construct: also called NS3a-mCherry

[2] = target: T2, NS3a/grazoprevir complex (biotinylated NS3a_3 with grazoprevir) (hepatitis C virus genotype 1a); assay: yeast surface display titration, apparent KD; NS3a_3, 10 drug:1 NS3a
T2 construct: See note of m30; also called grazoprevir/NS3a complex

[3] = target: T2, NS3a/grazoprevir complex (biotinylated …); assay: yeast surface display
[4] = target: T2, NS3a/grazoprevir complex (biotinylated …); assay: ratio of apparent KD against the danoprevir/NS3a complex of the same clone
[5] = target: T3, NS3a/asunaprevir complex (biotinylated NS3a_3 with asunaprevir) (hepatitis C virus genotype 1a); assay: as above
T3 construct: See note of m30

[6] = target: T4, NS3a/danoprevir complex (biotinylated NS3a_3 with danoprevir) (hepatitis C virus genotype 1a); assay: yeast surface display titration, apparent KD; NS3a_3, 10 drug:1 NS3a
T4 construct: See note of m30; also called danoprevir/NS3a complex

[7] = target: T3, NS3a/asunaprevir complex (biotinylated …); assay: as above
[8] = target: T4, NS3a/danoprevir complex (biotinylated …); assay: yeast surface display
[9] = target: T2, NS3a/grazoprevir complex (biotinylated …); assay: yeast surface display; relative binding, too weak for a full titration curve
[10] = target: T4, NS3a/danoprevir complex (biotinylated …); assay: as above
[11] = target: T3, NS3a/asunaprevir complex (biotinylated …); assay: as above
[12] = target: T2, NS3a/grazoprevir complex (biotinylated …); assay: yeast surface display; against the NS3a/danoprevir complex
[13] = target: T3, NS3a/asunaprevir complex (biotinylated …); assay: as above
[14] = target: T4, NS3a/danoprevir complex (biotinylated …)
[15] = target: T4, NS3a/danoprevir complex (biotinylated …); assay: yeast surface display, flow cytometry
[16] = target: T2, NS3a/grazoprevir complex (biotinylated …); assay: yeast surface display, flow cytometry

B1: ANR-ANR-BFP-CAAX (other)
chain: MGELDELVYLLDGPGYDPIHSDGSGTGSGTGSGTGTTSGTGTGGSTGGELDELVYLLDGPGYDPIHSDGSGTGSGTGSGTGTTSGTGTGGSTGEQKLISEEDLGSGSSELIKENMHMKLYMEGTVDNHHFKCTSEGEGKPYEGTQTMRIKVVEGGPLPFAFDILATSFLYGSKTFINHTQGIPDFFKQSFPEGFTWERVTTYEDGGVLTATQDTSLQDGCLIYNVKIRGVNFTSNGPVMQKKTLGWEAFTETLYPADGGLEGRNDMALKLVGGSHLIANIKTTYRSKKPAKNLKMPGVYYVDYRLERIKEANNETYVEQHEVAVARYCDLPSKLGHKLNRKHKEKMSKDGKKKKKKSKTKCVIM
binding result [1]: binds

B2: GNCR1, yeast surface display (C-terminal fusion to Aga2) (designed binder)
chain: KDNSSTIEGRYPYDVPDYALQASGGGGSGGGGSGGGGSASHMDIEKLCKKAEEEAKEAQEKADELRQRHPDSQAAEDAEDLANLAVAAVLTACLLAQEHPNADIAKLCIKAASEAAEAASKAAELAQRHPDSQAARDAIKLASQAARAVILAIMLAAENPNADIAKLCIKAASEAAEAASKAAELAQRHPDSQAARDAIKLASQAAEAVERAIWLAAENPNADIAKKCIKAASEAAEEASKAAEEAQRHPDSQKARDEIKEASQKAEEVKERCKSLEGGGSEQKLISEEDL
Kd [2]: 140 nM
Kd [3]: < 200 nM

B3: DNCR1, yeast surface display (C-terminal fusion to Aga2) (designed binder)
chain: KDNSSTIEGRYPYDVPDYALQASGGGGSGGGGSGGGGSASHMSSDEEEARELIERAKEAAERAQEAAERTGDPRVRELARELKRLAQEAAEEVKRDPSSSDVNEALKLIVEAIEAAVDALEAAERTGDPEVRELARELVRLAVEAAEEVQRNPSSSDVNEALLSIVIAIEAAVHALEAAERTGDPEVRELARELVRLAVEAAEEVQRNPSSREVEHALMKIVLAIYEAEESLREAEESGDPEKREKARERVREAVERAEEVQRDPSGWLNHLEGGGSEQKLISEEDL
Fold drug specificity [4]: 15 fold
Fold drug specificity [5]: 33 fold
Kd [2]: 2900 nM
Kd [6]: 190 nM
Kd [7]: 6300 nM
Kd [8]: < 200 nM

B4: D5, yeast surface display (C-terminal fusion to Aga2) (designed binder)
chain: KDNSSTIEGRYPYDVPDYALQASGGGGSGGGGSGGGGSASHMSSDEEEARELIERAKEAAERAQEAAERTGDPRVRELARELKRLAQEAAEEVKRDPSSSDVNEALKLIVEAIEAAVDALEAAERTGDPEVRELARELVRLAVEAAEEVQRNPSSSDVNEALLTIVIAIEAAVNALEAAERTGDPEVRELARELVRLAVEAAEEVQRNPSSREVNIALWKIVLAIQEAVESLREAEESGDPEKREKARERVREAVERAEEVQRDPSGWLNHLEGGGSEQKLISEEDL
binding result [9]: binds
binding result [10]: binds
binding result [11]: binds

B5: DNCR2, yeast surface display (C-terminal fusion to Aga2) (designed binder)
chain: KDNSSTIEGRYPYDVPDYALQASGGGGSGGGGSGGGGSASHMSSDEEEARELIERAKEAAERAQEAAERTGDPRVRELARELKRLAQEAAEEVKRDPSSSDVNEALKLIVEAIEAAVDALEAAERTGDPEVRELARELVRLAVEAAEEVQRNPSSSDVNEALHSIVYAIEAAIFALEAAERTGDPEVRELARELVRLAVEAAEEVQRNPSSRNVEHALMRIVLAIYLAEENLREAEESGDPEKREKARERVREAVERAEEVQRDPSGWLNHLEGGGSEQKLISEEDL
fold specificity [12]: > 20000 fold
fold specificity [13]: > 20000 fold
Kd [14]: 0.036 nM
Fold drug specificity [4]: 56000 fold
Fold drug specificity [5]: 21000 fold
Kd [2]: 2000 nM
Kd [7]: 770 nM

B6: Tom20-BFP-ANR-ANR (other)
chain: MVGRNSAIAAGVCGALFIGYCIYFDRKRRSDPNFMSELIKENMHMKLYMEGTVDNHHFKCTSEGEGKPYEGTQTMRIKVVEGGPLPFAFDILATSFLYGSKTFINHTQGIPDFFKQSFPEGFTWERVTTYEDGGVLTATQDTSLQDGCLIYNVKIRGVNFTSNGPVMQKKTLGWEAFTETLYPADGGLEGRNDMALKLVGGSHLIANIKTTYRSKKPAKNLKMPGVYYVDYRLERIKEANNETYVEQHEVAVARYCDLPSKLGHKLNSGSGEQKLISEEDLGSGTGSGTGSGTGTTSGTGTGGSTGGELDELVYLLDGPGYDPIHSDGSGTGSGTGSGTGTTSGTGTGGSTGGELDELVYLLDGPGYDPIHSDGSGATNFSLLKQAGDVEENPG
binding result [1]: binds

B7: D5 W177D, yeast surface display (designed binder)
chain: SSDEEEARELIERAKEAAERAQEAAERTGDPRVRELARELKRLAQEAAEEVKRDPSSSDVNEALKLIVEAIEAAVDALEAAERTGDPEVRELARELVRLAVEAAEEVQRNPSSSDVNEALLTIVIAIEAAVNALEAAERTGDPEVRELARELVRLAVEAAEEVQRNPSSREVNIALDKIVLAIQEAVESLREAEESGDPEKREKARERVREAVERAEEVQRDPSGWLNH
notes: also called point mutant of the D5 interface, W177D
binding result [15]: no binding (tested: 1 µM NS3a with avidity, 10 µM danoprevir)

B8: G3 M112E, yeast surface display (designed binder)
chain: DIEKLCKKAEEEAKEAQEKADELRQRHPDSQAAEDAEDLANEAEAAVLAACSLAQEHPNADIAKLCIKAASEAAEAASKAAELAQRHPDSQAARDAIKLASQAARAVILAIELAAENPNADIAKLCIKAASEAAEAASKAAELAQRHPDSQAARDAIKLASQAAEAVERAIWLAAENPNADIAKKCIKAASEAAEEASKAAEEAQRHPDSQKARDEIKEASQKAEEVKERCKS
notes: also called G3 interface point mutant M112E
binding result [16]: no binding

B9: G3 A175Q, yeast surface display (designed binder)
chain: DIEKLCKKAEEEAKEAQEKADELRQRHPDSQAAEDAEDLANEAEAAVLAACSLAQEHPNADIAKLCIKAASEAAEAASKAAELAQRHPDSQAARDAIKLASQAARAVILAIMLAAENPNADIAKLCIKAASEAAEAASKAAELAQRHPDSQAARDAIKLASQAAEAVERAIWLAQENPNADIAKKCIKAASEAAEEASKAAEEAQRHPDSQKARDEIKEASQKAEEVKERCKS
notes: See note of m25; also called G3 interface point mutant A175Q
binding result [16]: no binding
